Numbering of substitutions follows the chain as printed. Names and notes keep the numbering of the source. Each block holds one binder with its values, some of them ahead of it.
How the values were obtained:
[1] = target: Human CD137 ECD (human); experiment: Biacore SPR, vs parent H183/L072
[2] = target: Human CD3eg linker (human); experiment: SPR; fold vs parent H183/L072
Chain of Human CD3eg linker (human) (chain, as listed by the source limits assumed): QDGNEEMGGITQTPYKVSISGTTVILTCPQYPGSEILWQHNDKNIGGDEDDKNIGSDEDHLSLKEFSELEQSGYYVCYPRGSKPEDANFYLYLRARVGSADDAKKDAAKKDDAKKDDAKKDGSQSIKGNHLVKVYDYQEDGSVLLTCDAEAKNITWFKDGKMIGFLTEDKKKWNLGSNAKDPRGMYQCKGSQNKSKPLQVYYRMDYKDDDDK

Chain of Human CD137 ECD (human) (chain, as listed by the source limits assumed): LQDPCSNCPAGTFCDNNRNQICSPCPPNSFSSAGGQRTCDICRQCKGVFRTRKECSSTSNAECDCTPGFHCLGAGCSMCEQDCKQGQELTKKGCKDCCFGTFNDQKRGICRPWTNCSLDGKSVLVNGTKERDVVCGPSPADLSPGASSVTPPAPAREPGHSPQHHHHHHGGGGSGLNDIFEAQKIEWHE

- fold change of affinity [1]: 0 fold
B1: H183/L072 VL T31G (antibody, name in Kabat numbering, V domains shown)
VH: QVQLVESGGGLVQPGRSLRLSCAASGFTFSNAWMHWVRQAPGKGLEWVAQIKDKGNAYAAYYAPSVKGRFTISRDDSKNSIYLQMNSLKTEDTAVYYCHYVHYASASTVLPAFGVDAWGQGTTVTVSS
VL: DIVMTQSPLSLPVTPGEPASISCQASQELVHMNRNGYLHWYQQKPGQAPRLLIYKVSNRFPGVPDRFSGSGSGTDFTLKISRVEAEDVGVYYCAQGTSVPFTFGQGTKLEIK

- fold change of affinity [2]: 0 fold
B2: H183/L072 VL V94W (antibody, name in Kabat numbering, V domains shown)
VH: B1 VH
VL: B1 VL with G36T, V99W

- fold change of affinity [2]: 0 fold
B3: H183/L072 VL P95N (antibody, name in Kabat numbering, V domains shown)
VH: B1 VH
VL: B1 VL with G36T, P100N

- fold change of affinity [2]: 0 fold
B4: H183/L072 VL V94G (antibody, name in Kabat numbering, V domains shown)
VH: B1 VH
VL: B1 VL with G36T, V99G

- fold change of affinity [2]: 0 fold
B5: H183/L072 VL F96R (antibody, name in Kabat numbering, V domains shown)
VH: B1 VH
VL: B1 VL with G36T, F101R

- fold change of affinity [2]: 0 fold
B6: H183/L072 VL K50Q (antibody, name in Kabat numbering, V domains shown)
VH: B1 VH
VL: B1 VL with G36T, K55Q

- fold change of affinity [2]: 0 fold
B7: H183/L072 VL G91V (antibody, name in Kabat numbering, V domains shown)
VH: B1 VH
VL: B1 VL with G36T, G96V

- fold change of affinity [2]: 0 fold
B8: H183/L072 VL K50V (antibody, name in Kabat numbering, V domains shown)
VH: B1 VH
VL: B1 VL with G36T, K55V

- fold change of affinity [2]: 0 fold
B9: H183/L072 VL T92W (antibody, name in Kabat numbering, V domains shown)
VH: B1 VH
VL: B1 VL with G36T, T97W

- fold change of affinity [1]: 0 fold
B10: H183/L072 VL L27bN (antibody, name in Kabat numbering, V domains shown)
VH: B1 VH
VL: B1 VL with L29N, G36T

- fold change of affinity [2]: 0 fold
B11: H183/L072 VL P95W (antibody, name in Kabat numbering, V domains shown)
VH: B1 VH
VL: B1 VL with G36T, P100W

- fold change of affinity [2]: 0 fold
B12: H183/L072 VL A89R (antibody, name in Kabat numbering, V domains shown)
VH: B1 VH
VL: B1 VL with G36T, A94R

- fold change of affinity [2]: 0 fold
B13: H183/L072 VL G91R (antibody, name in Kabat numbering, V domains shown)
VH: B1 VH
VL: B1 VL with G36T, G96R

- fold change of affinity [2]: 0 fold
B14: H183/L072 VL K50N (antibody, name in Kabat numbering, V domains shown)
VH: B1 VH
VL: B1 VL with G36T, K55N

- fold change of affinity [2]: 0 fold
B15: H183/L072 VL G91F (antibody, name in Kabat numbering, V domains shown)
VH: B1 VH
VL: B1 VL with G36T, G96F

- fold change of affinity [2]: 0 fold
B16: H183/L072 VL T97W (antibody, name in Kabat numbering, V domains shown)
VH: B1 VH
VL: B1 VL with G36T, T102W

- fold change of affinity [2]: 0 fold
B17: H183/L072 VL K50G (antibody, name in Kabat numbering, V domains shown)
VH: B1 VH
VL: B1 VL with G36T, K55G

- fold change of affinity [2]: 0 fold
B18: H183/L072 VL V51W (antibody, name in Kabat numbering, V domains shown)
VH: B1 VH
VL: B1 VL with G36T, V56W

- fold change of affinity [2]: 0 fold
B19: H183/L072 VL S93P (antibody, name in Kabat numbering, V domains shown)
VH: B1 VH
VL: B1 VL with G36T, S98P

- fold change of affinity [2]: 0 fold
B20: H183/L072 VL P95R (antibody, name in Kabat numbering, V domains shown)
VH: B1 VH
VL: B1 VL with G36T, P100R

- fold change of affinity [2]: 0 fold
B21: H183/L072 VL Q90P (antibody, name in Kabat numbering, V domains shown)
VH: B1 VH
VL: B1 VL with G36T, Q95P

- fold change of affinity [2]: 0 fold
B22: H183/L072 VL Q90N (antibody, name in Kabat numbering, V domains shown)
VH: B1 VH
VL: B1 VL with G36T, Q95N

- fold change of affinity [2]: 0 fold
B23: H183/L072 VL Q90R (antibody, name in Kabat numbering, V domains shown)
VH: B1 VH
VL: B1 VL with G36T, Q95R

- fold change of affinity [2]: 0 fold
B24: H183/L072 VL F96G (antibody, name in Kabat numbering, V domains shown)
VH: B1 VH
VL: B1 VL with G36T, F101G

- fold change of affinity [2]: 0 fold
B25: H183/L072 VL V51F (antibody, name in Kabat numbering, V domains shown)
VH: B1 VH
VL: B1 VL with G36T, V56F

- fold change of affinity [2]: 0 fold
B26: H183/L072 VL T92P (antibody, name in Kabat numbering, V domains shown)
VH: B1 VH
VL: B1 VL with G36T, T97P

- fold change of affinity [2]: 0 fold
B27: H183/L072 VL K50F (antibody, name in Kabat numbering, V domains shown)
VH: B1 VH
VL: B1 VL with G36T, K55F

- fold change of affinity [2]: 0 fold
B28: H183/L072 VL P95G (antibody, name in Kabat numbering, V domains shown)
VH: B1 VH
VL: B1 VL with G36T, P100G

- fold change of affinity [2]: 0 fold
B29: H183/L072 VL F96V (antibody, name in Kabat numbering, V domains shown)
VH: B1 VH
VL: B1 VL with G36T, F101V

- fold change of affinity [2]: 0 fold
B30: H183/L072 VL F96W (antibody, name in Kabat numbering, V domains shown)
VH: B1 VH
VL: B1 VL with G36T, F101W

- fold change of affinity [2]: 0 fold
B31: H183/L072 VL K50W (antibody, name in Kabat numbering, V domains shown)
VH: B1 VH
VL: B1 VL with G36T, K55W

- fold change of affinity [2]: 0 fold
B32: H183/L072 VL P95V (antibody, name in Kabat numbering, V domains shown)
VH: B1 VH
VL: B1 VL with G36T, P100V

- fold change of affinity [2]: 0 fold
B33: H183/L072 VL Q90G (antibody, name in Kabat numbering, V domains shown)
VH: B1 VH
VL: B1 VL with G36T, Q95G

- fold change of affinity [2]: 0 fold
B34: H183/L072 VL F96N (antibody, name in Kabat numbering, V domains shown)
VH: B1 VH
VL: B1 VL with G36T, F101N

- fold change of affinity [2]: 0 fold
B35: H183/L072 VL F96P (antibody, name in Kabat numbering, V domains shown)
VH: B1 VH
VL: B1 VL with G36T, F101P

- fold change of affinity [2]: 0 fold
B36: H183/L072 VL G91N (antibody, name in Kabat numbering, V domains shown)
VH: B1 VH
VL: B1 VL with G36T, G96N

- fold change of affinity [1]: 0 fold
B37: H183/L072 VL H34G (antibody, name in Kabat numbering, V domains shown)
VH: B1 VH
VL: B1 VL with G36T, H39G

- fold change of affinity [2]: 0 fold
B38: H183/L072 VL Q90W (antibody, name in Kabat numbering, V domains shown)
VH: B1 VH
VL: B1 VL with G36T, Q95W

- fold change of affinity [1]: 0 fold
B39: H183/L072 VL T31N (antibody, name in Kabat numbering, V domains shown)
VH: B1 VH
VL: B1 VL with G36N

- fold change of affinity [2]: 0 fold
B40: H183/L072 VL V51N (antibody, name in Kabat numbering, V domains shown)
VH: B1 VH
VL: B1 VL with G36T, V56N

- fold change of affinity [2]: 0 fold
B41: H183/L072 VL T97P (antibody, name in Kabat numbering, V domains shown)
VH: B1 VH
VL: B1 VL with G36T, T102P

- fold change of affinity [2]: 0 fold
B42: H183/L072 VL G91W (antibody, name in Kabat numbering, V domains shown)
VH: B1 VH
VL: B1 VL with G36T, G96W

- fold change of affinity [2]: 0 fold
B43: H183/L072 VL Q90F (antibody, name in Kabat numbering, V domains shown)
VH: B1 VH
VL: B1 VL with G36T, Q95F

- fold change of affinity [2]: 0 fold
B44: H183/L072 VL G91P (antibody, name in Kabat numbering, V domains shown)
VH: B1 VH
VL: B1 VL with G36T, G96P

- fold change of affinity [2]: 0 fold
B45: H183/L072 VL P95F (antibody, name in Kabat numbering, V domains shown)
VH: B1 VH
VL: B1 VL with G36T, P100F

- fold change of affinity [2]: 0 fold
B46: H183/L072 VL Q90V (antibody, name in Kabat numbering, V domains shown)
VH: B1 VH
VL: B1 VL with G36T, Q95V

- fold change of affinity [2]: 0 fold
B47: H183/L072 VL A89N (antibody, name in Kabat numbering, V domains shown)
VH: B1 VH
VL: B1 VL with G36T, A94N

From US20210388087A1
